Data on 92 substances can be found in the Human Domainome abundance scans (Beltran et al. 2025).

± gives the uncertainty stated by the source.

The nature of the data set: abundance fitness (aPCA) (normalised: wild type 0, dead -1); higher = more abundant; growth selection in yeast, the domain comes from the species named. The note with it: Homo sapiens.
With “DnaJ homolog subfamily B member 1 T8G, P25685”, the abundance fitness was -0.469 ± 0.099. The value for “DnaJ homolog subfamily B member 1 T8H, P25685” was 0.211 ± 0.46.

The substance “DnaJ homolog subfamily B member 1 T8I, P25685” displayed an abundance fitness of 0.036 ± 0.088. The value for “DnaJ homolog subfamily B member 1 T8L, P25685” was -0.101 ± 0.071; that for “DnaJ homolog subfamily B member 1 T8M, P25685” was -0.121 ± 0.17. As to “DnaJ homolog subfamily B member 1 T8N, P25685”, the abundance fitness is -0.303 ± 0.18.

Consider “DnaJ homolog subfamily B member 1 T8P, P25685”, for which the abundance fitness was -0.333 ± 0.067. The value for “DnaJ homolog subfamily B member 1 T8Q, P25685” was -0.165 ± 0.12; that for “DnaJ homolog subfamily B member 1 T8S, P25685” was -0.149 ± 0.093.

The substance “DnaJ homolog subfamily B member 1 T8V, P25685” registered an abundance fitness of -0.106 ± 0.058. The value for “DnaJ homolog subfamily B member 1 T8W, P25685” was -0.281 ± 0.1. The value for “DnaJ homolog subfamily B member 1 T8Y, P25685” was -0.261 ± 0.05; that for “DnaJ homolog subfamily B member 1 V54A, P25685” was -0.201 ± 0.2; that for “DnaJ homolog subfamily B member 1 V54C, P25685” was 0.063 ± 0.086. Substance “DnaJ homolog subfamily B member 1 V54D, P25685” displayed an abundance fitness of -0.419 ± 0.14. The value for “DnaJ homolog subfamily B member 1 V54E, P25685” was -0.126 ± 0.15; that for “DnaJ homolog subfamily B member 1 V54F, P25685” was 0.077 ± 0.21; that for “DnaJ homolog subfamily B member 1 V54G, P25685” was -0.322 ± 0.058. The value for “DnaJ homolog subfamily B member 1 V54H, P25685” was -0.886 ± 0.19; that for “DnaJ homolog subfamily B member 1 V54I, P25685” was -0.096 ± 0.12; that for “DnaJ homolog subfamily B member 1 V54L, P25685” was -0.171 ± 0.076. In turn, “DnaJ homolog subfamily B member 1 V54M, P25685” displayed an abundance fitness of -0.084 ± 0.14. Take “DnaJ homolog subfamily B member 1 V54N, P25685”: the abundance fitness is -0.084 ± 0.11. The figure for “DnaJ homolog subfamily B member 1 V54P, P25685” is -0.699 ± 0.059. The value for “DnaJ homolog subfamily B member 1 V54Q, P25685” was -0.423 ± 0.21; that for “DnaJ homolog subfamily B member 1 V54S, P25685” was -0.15 ± 0.076; that for “DnaJ homolog subfamily B member 1 V54T, P25685” was 0.065 ± 0.12. The figure for “DnaJ homolog subfamily B member 1 V54W, P25685” is -0.185 ± 0.16; for “DnaJ homolog subfamily B member 1 V54Y, P25685” it is -0.211 ± 0.27; for “DnaJ homolog subfamily B member 1 Y5A, P25685” it is -0.316 ± 0.13. For “DnaJ homolog subfamily B member 1 Y5C, P25685”, the abundance fitness is -0.164 ± 0.18. The figure for “DnaJ homolog subfamily B member 1 Y5E, P25685” is -0.808 ± 0.28.

As for “DnaJ homolog subfamily B member 1 Y5F, P25685”, the abundance fitness is -0.449 ± 0.16.

In turn, “DnaJ homolog subfamily B member 1 Y5G, P25685” returned an abundance fitness of -0.672 ± 0.092. “DnaJ homolog subfamily B member 1 Y5H, P25685”: the abundance fitness was 0.024 ± 0.068.

For “DnaJ homolog subfamily B member 1 Y5I, P25685”, the abundance fitness is -0.416 ± 0.21. The figure for “DnaJ homolog subfamily B member 1 Y5K, P25685” is -0.493 ± 0.15; for “DnaJ homolog subfamily B member 1 Y5L, P25685” it is -0.284 ± 0.14; for “DnaJ homolog subfamily B member 1 Y5M, P25685” it is -0.179 ± 0.11. The value for “DnaJ homolog subfamily B member 1 Y5N, P25685” was -0.392 ± 0.12; that for “DnaJ homolog subfamily B member 1 Y5P, P25685” was -0.232 ± 0.15; that for “DnaJ homolog subfamily B member 1 Y5Q, P25685” was -0.3 ± 0.15. The figure for “DnaJ homolog subfamily B member 1 Y5R, P25685” is -0.52 ± 0.11. The substance “DnaJ homolog subfamily B member 1 Y5S, P25685” returned an abundance fitness of -0.262 ± 0.1. The figure for “DnaJ homolog subfamily B member 1 Y5T, P25685” is -0.699 ± 0.24; for “DnaJ homolog subfamily B member 1 Y5V, P25685” it is -1.47 ± 0.2. The value for “DnaJ homolog subfamily B member 1 Y5W, P25685” was -0.305 ± 0.22.

Regarding “DnaJ homolog subfamily B member 1 Y6A, P25685”, the abundance fitness is -0.991 ± 0.18. The value for “DnaJ homolog subfamily B member 1 Y6C, P25685” was -0.863 ± 0.22. The value for “DnaJ homolog subfamily B member 1 Y6D, P25685” was -0.747 ± 0.16; that for “DnaJ homolog subfamily B member 1 Y6E, P25685” was -0.683 ± 0.097.

“DnaJ homolog subfamily B member 1 Y6F, P25685” gave an abundance fitness of -0.162 ± 0.16.

On to “DnaJ homolog subfamily B member 1 Y6G, P25685”, for which the abundance fitness is -0.977 ± 0.2. The value for “DnaJ homolog subfamily B member 1 Y6K, P25685” was -0.911 ± 0.15; that for “DnaJ homolog subfamily B member 1 Y6M, P25685” was -0.806 ± 0.11; that for “DnaJ homolog subfamily B member 1 Y6N, P25685” was -0.523 ± 0.13. The figure for “DnaJ homolog subfamily B member 1 Y6P, P25685” is -0.589 ± 0.2. The figure for “DnaJ homolog subfamily B member 1 Y6Q, P25685” is -0.742 ± 0.13; for “DnaJ homolog subfamily B member 1 Y6R, P25685” it is -0.986 ± 0.1; for “DnaJ homolog subfamily B member 1 Y6S, P25685” it is -0.817 ± 0.072. As for “DnaJ homolog subfamily B member 1 Y6T, P25685”, the abundance fitness was -0.557 ± 0.11. The figure for “DnaJ homolog subfamily B member 1 Y6V, P25685” is -1.18 ± 0.086; for “DnaJ homolog subfamily B member 1 Y6W, P25685” it is -0.204 ± 0.13; for “DnaJ homolog subfamily B member 1 Y24A, P25685” it is -0.686 ± 0.24. The figure for “DnaJ homolog subfamily B member 1 Y24C, P25685” is -0.504 ± 0.086; for “DnaJ homolog subfamily B member 1 Y24D, P25685” it is -0.654 ± 0.16; for “DnaJ homolog subfamily B member 1 Y24E, P25685” it is -0.411 ± 0.1. The figure for “DnaJ homolog subfamily B member 1 Y24F, P25685” is -0.075 ± 0.2; for “DnaJ homolog subfamily B member 1 Y24G, P25685” it is -0.499 ± 0.1. For “DnaJ homolog subfamily B member 1 Y24H, P25685”, the abundance fitness is -0.38 ± 0.2. In turn, “DnaJ homolog subfamily B member 1 Y24I, P25685” gave an abundance fitness of -0.788 ± 0.2. Regarding “DnaJ homolog subfamily B member 1 Y24K, P25685”, the abundance fitness is -0.358 ± 0.099. With “DnaJ homolog subfamily B member 1 Y24L, P25685”, the abundance fitness was -0.492 ± 0.061. Take “DnaJ homolog subfamily B member 1 Y24M, P25685”: the abundance fitness is -0.223 ± 0.074.

Substance “DnaJ homolog subfamily B member 1 Y24N, P25685” yielded an abundance fitness of -0.408 ± 0.11.

In the case of “DnaJ homolog subfamily B member 1 Y24Q, P25685”, the abundance fitness is -0.547 ± 0.091. In turn, “DnaJ homolog subfamily B member 1 Y24R, P25685” displayed an abundance fitness of -0.404 ± 0.055. The value for “DnaJ homolog subfamily B member 1 Y24S, P25685” was -0.464 ± 0.055; that for “DnaJ homolog subfamily B member 1 Y24T, P25685” was -0.427 ± 0.08; that for “DnaJ homolog subfamily B member 1 Y24V, P25685” was -0.547 ± 0.09. The figure for “DnaJ homolog subfamily B member 1 Y24W, P25685” is -0.159 ± 0.079; for “DnaJ homolog subfamily B member 1 Y31A, P25685” it is -0.175 ± 0.12. The value for “DnaJ homolog subfamily B member 1 Y31D, P25685” was -0.27 ± 0.16. In turn, “DnaJ homolog subfamily B member 1 Y31E, P25685” came in with an abundance fitness of -0.294 ± 0.089. The value for “DnaJ homolog subfamily B member 1 Y31F, P25685” was -0.347 ± 0.17; that for “DnaJ homolog subfamily B member 1 Y31G, P25685” was -0.302 ± 0.1. For “DnaJ homolog subfamily B member 1 Y31H, P25685”, the abundance fitness was -0.494 ± 0.21. The figure for “DnaJ homolog subfamily B member 1 Y31I, P25685” is -0.259 ± 0.052. The figure for “DnaJ homolog subfamily B member 1 Y31L, P25685” is -0.16 ± 0.063; for “DnaJ homolog subfamily B member 1 Y31M, P25685” it is -0.164 ± 0.092. With “DnaJ homolog subfamily B member 1 Y31N, P25685”, the abundance fitness is -0.287 ± 0.14. The value for “DnaJ homolog subfamily B member 1 Y31P, P25685” was -0.537 ± 0.095.
